Patent US20200392203A1 (YEDA RESEARCH AND DEVELOPMENT, published 2020)

How the values were obtained:
[1] = molecular target: native spike complex (glycoprotein complex, GPC) of Junin virus (JUNV) (Junin virus (JUNV))
[2] = molecular target: native spike complex (glycoprotein complex, GPC) of Sabia virus (SABV) (Sabia virus (SABV))
[3] = molecular target: GP1WWAV-Fc (GP1 domain of Whitewater Arroyo virus fused at its C' terminus to an antibody Fc portion) (Whitewater Arroyo virus (WWAV)) (UniProt Q911P0); assay: SPR (Biacore T200), single cycle kinetics; […]; 1:1 model
[4] = molecular target: GP1GTOV-Fc (GP1 domain of Guanarito virus fused at its C' terminus to an antibody Fc portion) (Guanarito virus (GTOV)) (UniProt Q8AYW1); assay: SPR (Biacore T200), single-cycle kinetics; […]; 1:1 model fit
GP1GTOV-Fc (GP1 domain of Guanarito virus fused at its C' terminus to an antibody Fc portion) (Guanarito virus (GTOV)), sequence (Q8AYW1 87-240): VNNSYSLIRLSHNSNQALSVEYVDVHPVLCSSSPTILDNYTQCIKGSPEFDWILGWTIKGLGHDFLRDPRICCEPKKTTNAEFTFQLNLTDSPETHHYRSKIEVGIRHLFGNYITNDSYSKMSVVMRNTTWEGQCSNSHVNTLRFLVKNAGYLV

GP1WWAV-Fc (GP1 domain of Whitewater Arroyo virus fused at its C' terminus to an antibody Fc portion) (Whitewater Arroyo virus (WWAV)), sequence (Q911P0 87-241): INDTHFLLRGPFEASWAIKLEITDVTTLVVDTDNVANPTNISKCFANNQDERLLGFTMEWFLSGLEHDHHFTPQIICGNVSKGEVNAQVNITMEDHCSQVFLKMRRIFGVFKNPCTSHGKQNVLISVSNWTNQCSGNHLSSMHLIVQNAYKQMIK
native spike complex (glycoprotein complex, GPC) of Sabia virus (SABV) (Sabia virus (SABV)), sequence (Q90037 2-58, chain 1 of 3): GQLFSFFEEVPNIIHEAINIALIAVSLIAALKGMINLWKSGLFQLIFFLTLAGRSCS
native spike complex (glycoprotein complex, GPC) of Sabia virus (SABV) (Sabia virus (SABV)), sequence (Q90037 59-254, chain 2 of 3): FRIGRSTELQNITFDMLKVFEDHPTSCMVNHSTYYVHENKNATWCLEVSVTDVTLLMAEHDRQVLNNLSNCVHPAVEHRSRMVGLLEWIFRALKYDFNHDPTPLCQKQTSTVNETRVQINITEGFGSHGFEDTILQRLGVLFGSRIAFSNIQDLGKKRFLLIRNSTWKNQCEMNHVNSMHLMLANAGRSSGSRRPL
native spike complex (glycoprotein complex, GPC) of Sabia virus (SABV) (Sabia virus (SABV)), sequence (Q90037 255-488, chain 3 of 3): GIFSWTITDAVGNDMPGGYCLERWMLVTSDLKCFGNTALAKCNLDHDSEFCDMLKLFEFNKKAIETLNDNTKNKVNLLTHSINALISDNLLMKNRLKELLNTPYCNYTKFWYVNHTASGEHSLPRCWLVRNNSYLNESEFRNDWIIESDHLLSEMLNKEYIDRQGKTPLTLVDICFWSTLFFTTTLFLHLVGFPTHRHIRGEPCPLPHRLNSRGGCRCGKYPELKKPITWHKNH
native spike complex (glycoprotein complex, GPC) of Junin virus (JUNV) (Junin virus (JUNV)), sequence (P26313 2-58 limits assumed, chain 1 of 3): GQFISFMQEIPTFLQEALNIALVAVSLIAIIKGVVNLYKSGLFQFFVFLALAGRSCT
native spike complex (glycoprotein complex, GPC) of Junin virus (JUNV) (Junin virus (JUNV)), sequence (P26313 59-251 limits assumed, chain 2 of 3): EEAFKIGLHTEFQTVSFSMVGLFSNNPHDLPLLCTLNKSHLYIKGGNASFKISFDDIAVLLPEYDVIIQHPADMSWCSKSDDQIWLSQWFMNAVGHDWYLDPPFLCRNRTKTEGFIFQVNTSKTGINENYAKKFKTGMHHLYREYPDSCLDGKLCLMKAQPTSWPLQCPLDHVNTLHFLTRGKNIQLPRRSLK
native spike complex (glycoprotein complex, GPC) of Junin virus (JUNV) (Junin virus (JUNV)), sequence (P26313 252-485 limits assumed, chain 3 of 3): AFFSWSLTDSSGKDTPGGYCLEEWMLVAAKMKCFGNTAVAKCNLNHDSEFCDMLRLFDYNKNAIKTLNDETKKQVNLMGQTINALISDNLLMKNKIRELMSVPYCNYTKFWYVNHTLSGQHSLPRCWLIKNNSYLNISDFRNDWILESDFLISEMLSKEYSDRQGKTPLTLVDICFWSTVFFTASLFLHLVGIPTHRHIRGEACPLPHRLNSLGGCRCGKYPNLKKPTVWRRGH

Molecule | pseudovirus neutralisation (luciferase, hTfR1-overexpressing HEK293 cells), IC50 [1] [µg/mL] | pseudovirus neutralisation (luciferase, hTfR1-overexpressing HEK293 cells), IC50 [2] [µg/mL] | Kd [3] [nM] | Kd [4] [nM]
Arenacept (sAD fused at its C'-terminus to an Fc portion of IgG1) (Fc fusion) | 1.5 | 3.5 |  | 
soluble apical domain (sAD) of Neotoma albigula (White-throated woodrat) TfR1 (receptor) GSKIQVKCSAPNSVTITNASGGLYLVEYPEGYVAYSKATEVTGKLVHANFGTKKDFEDLDYAVNGSIVIVRAGKITIAEKVANAQSFNAIGVLIYKDRTKYPISRADEPLQGHSGLPSIPVQTISREAAEKLFQNMERDCPRSWNTDSSCKLELLQNRNVKLTVNNCLKE |  |  | 1000 | 360
